target: T1, elastase (type I: derived from porcine pancreas) (Sus scrofa, UniProt P00772); assay: Elastase inhibition test (p-nitroanilide release, absorbance 410 nm); type: biochemical; details: peptides and controls 100 μg/mL; N-succinyl-(L-Ala) 3-p-nitroanilide substrate, 37 °C, 30 minutes
T1 construct: type I: derived from porcine pancreas; purchased Sigma Aldrich, USA; host or cells: porcine pancreas (tissue-derived)
Procedure: In order to confirm the anti-wrinkle effect of tetrapeptides, a test of inhibiting elastase was performed. The amount of p-nitroanilide produced was measured using N-succinyl-(L-Aal) 3-p-nitroanilide as a substrate at 37 °C for 30 minutes. After adding each of the peptides to be tested and negative and positive controls in an amount of 100 μg/mL into test tube, respectively, a pancreatic solution (type I: derived from porcine pancreas, 0.6 unit/mL, Sigma Aldrich, USA) in an amount of […] was added thereto. Thereafter, a substrate, in which N-succinyl-(L-Ala) 3-p-nitroanilide (1 mg/mL) was dissolved in 50 mM Tris-HCl buffer (pH 8.6), was added in an amount of […] thereto and allowed to react for 30 minutes and the absorbance was measured at 410 nm using a microplate reader. The elastase inhibitory activity was expressed as a decrease rate in absorbance of the groups with and without the addition of the sample solution as shown in Equation 1 below.
After treating the 42 kinds of synthesized peptides, their effects on inhibition of elastase were measured.

T1 sequence (P00772 27-266): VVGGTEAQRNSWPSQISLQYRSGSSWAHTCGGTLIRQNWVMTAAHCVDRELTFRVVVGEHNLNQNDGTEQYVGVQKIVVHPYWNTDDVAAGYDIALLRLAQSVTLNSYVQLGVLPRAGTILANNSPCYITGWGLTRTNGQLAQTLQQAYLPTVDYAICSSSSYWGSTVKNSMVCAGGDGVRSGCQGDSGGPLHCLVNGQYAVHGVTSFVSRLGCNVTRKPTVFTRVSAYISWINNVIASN

Molecule | Elastase Inhibition Rate(%)
CAPQ (Tetra Peptide) [Sample 14, tetrapeptide] | 77.2
DCVK (Tetra Peptide) [Sample 5, tetrapeptide] | 118.4
EQQE [25] (Tetra Peptide) [Sample 25, tetrapeptide] | 53.6
EQQE [37] (Tetra Peptide) [Sample 37, tetrapeptide] | 64.2
GCFS (Tetra Peptide) [Sample 20, tetrapeptide] | 55.2
GGSG [Sample 18] | 103.5
GQVS (Tetra Peptide) [Sample 10, tetrapeptide] | 33.9
GSGY (Tetra Peptide) [Sample 9, tetrapeptide] | 56.3
GSSG (Tetra Peptide) [Sample 19, tetrapeptide] | 58.3
GYVS (Tetra Peptide) [Sample 11, tetrapeptide] | 78.5
KTSG (Tetra Peptide) [Sample 7, tetrapeptide] | 44.5
MSYQ (Tetra Peptide) [Sample 1, tetrapeptide] | 79.4
PPVD (Tetra Peptide) [Sample 4, tetrapeptide] | 72.5
PTPQ (Tetra Peptide) [Sample 3, tetrapeptide] | 69.3
QKKQ (Tetra Peptide) [Sample 2, tetrapeptide] | 88.7
QPSY (Tetra Peptide) [Sample 15, tetrapeptide] | 63.5
SGGS (Tetra Peptide) [Sample 8, tetrapeptide] | 49.6
SQQV (Tetra Peptide) [Sample 12, tetrapeptide] | 49.3
SSGG (Tetra Peptide) [Sample 17, tetrapeptide] | 77.0
TQTS (Tetra Peptide) [Sample 13, tetrapeptide] | 59.0
VKTS (Tetra Peptide) [Sample 6, tetrapeptide] | 66.3
YGGG (Tetra Peptide) [Sample 16, tetrapeptide] | 67.1

Further lines, results first:

Elastase Inhibition Rate(%) | Molecule
28.8 | C[C@H]1[C@H](C)CC[C@]2(C(=O)O)CC[C@]3(C)C(=CC[C@@H]4[C@@]5(C)CCC(=O)C(C)(C)[C@@H]5CC[C@]43C)[C@H]12 [Ursonic acid, reference compound]
47.4 | CFSS (Tetra Peptide) [Sample 21, tetrapeptide]
69.7 | EGQL (Tetra Peptide) [Sample 30, tetrapeptide]
66.3 | EHQE (Tetra Peptide) [Sample 29, tetrapeptide]
90.5 | ELPE (Tetra Peptide) [Sample 24, tetrapeptide]
49.5 | EVQW (Tetra Peptide) [Sample 42, tetrapeptide]
69.1 | FSSG (Tetra Peptide) [Sample 22, tetrapeptide]
34.5 | GQDP (Tetra Peptide) [Sample 34, tetrapeptide]
73.2 | GQLE (Tetra Peptide) [Sample 23, tetrapeptide]
56.0 | GQLK (Tetra Peptide) [Sample 27, tetrapeptide]
79.3 | KHLE (Tetra Peptide) [Sample 28, tetrapeptide]
78.2 | LELP (Tetra Peptide) [Sample 26, tetrapeptide]
70.6 | LEVP (Tetra Peptide) [Sample 31, tetrapeptide]
64.0 | PEEQ (Tetra Peptide) [Sample 32, tetrapeptide]
60.5 | QLKY (Tetra Peptide) [Sample 35, tetrapeptide]
55.6 | QMGQ (Tetra Peptide) [Sample 33, tetrapeptide]
72.3 | QQKQ (Tetra Peptide) [Sample 41, tetrapeptide]
59.3 | TKGE (Tetra Peptide) [Sample 38, tetrapeptide]
55.7 | VEHQ (Tetra Peptide) [Sample 40, tetrapeptide]
60.7 | VLLP (Tetra Peptide) [Sample 39, tetrapeptide]
72.3 | YLEQ (Tetra Peptide) [Sample 36, tetrapeptide]
